Holding throughout (details): both partners purified
For assay [1], the target named is T1, Prostate-specific membrane antigen (PSMA), human (Homo sapiens, UniProt Q04609).
T1 construct: human FOLH1 (PSMA), UniProt Q04609; The methods of the multicycle SPR say only 'PSMA (R&D Systems)'; R&D Systems' recombinant human PSMA is, as far as recalled, the extracellular domain (about K44-A750) with a His tag; also called Human FOLH1; human PSMA; source: bought: R&D Systems (multicycle SPR)
In words: SPR; Biacore T200, multicycle kinetics; antibody captured on a Protein G chip (~50 RU), PSMA as analyte 25 to 1.5625 nM in HBS-EP+, 35 μL/min, association 600 s, dissociation 2400 s; 1-to-1 binding model with global Rmax.

The target in assay [2] is T2, mouse PSMA (Mus musculus, UniProt O35409).
T2 construct: PSMA (Folh1) of mouse; also called murine PSMA
In words: SPR; Biacore T200, single-cycle kinetics at 25 °C; DOTA-conjugated antibodies captured on a Protein G chip (~50 RU), PSMA as analyte 12.5 to 50 nM in HBS-EP+, 40 μL/min; Langmuir (1:1) model.
T2 sequence (O35409 whole entry): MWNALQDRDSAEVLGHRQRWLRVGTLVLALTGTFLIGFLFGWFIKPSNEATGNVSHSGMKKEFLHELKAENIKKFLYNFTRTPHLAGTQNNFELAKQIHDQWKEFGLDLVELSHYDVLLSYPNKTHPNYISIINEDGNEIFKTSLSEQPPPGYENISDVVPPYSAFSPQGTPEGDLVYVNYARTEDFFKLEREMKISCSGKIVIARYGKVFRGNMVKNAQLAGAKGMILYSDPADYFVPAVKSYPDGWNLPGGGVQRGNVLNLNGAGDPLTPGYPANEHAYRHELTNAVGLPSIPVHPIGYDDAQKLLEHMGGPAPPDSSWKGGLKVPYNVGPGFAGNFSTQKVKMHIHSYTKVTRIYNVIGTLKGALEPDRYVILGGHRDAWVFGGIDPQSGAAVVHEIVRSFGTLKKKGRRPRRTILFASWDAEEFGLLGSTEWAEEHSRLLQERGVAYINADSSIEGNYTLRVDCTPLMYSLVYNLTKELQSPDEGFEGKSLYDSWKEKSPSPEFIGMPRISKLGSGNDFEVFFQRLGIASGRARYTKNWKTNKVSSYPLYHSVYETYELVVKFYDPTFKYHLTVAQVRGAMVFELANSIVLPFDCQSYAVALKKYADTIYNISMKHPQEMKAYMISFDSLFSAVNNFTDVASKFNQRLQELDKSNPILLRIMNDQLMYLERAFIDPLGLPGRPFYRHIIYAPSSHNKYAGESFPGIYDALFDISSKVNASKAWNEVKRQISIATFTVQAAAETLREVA

In assay [3] the target is T3, mouse PSMA (Mus musculus, UniProt O35409).
T3 construct: mouse prostate-specific membrane antigen (PSMA), purified protein; also called PSMA (Mouse); murine PSMA
The assay is described as follows: SPR; Biacore T200, single-cycle kinetics, 25 °C, HBS-EP+; antibody-DOTA captured on a Protein G chip (~50 RU); PSMA as analyte, three-point 2-fold dilution 12.5-50 nM, 40 uL/min; association 200 s, dissociation 1500 s; Langmuir 1:1 fit.
T3 sequence (O35409 whole entry): as above

B1: ANT4044 IgG1 (antibody, V domains shown)
VH: EVQLVQSGAEVKKPGASVKVSCKASGYTFTEYTIHWVRQAPGKGLEWIGNINPNNGGTTYNQKFEDRVTITVDKSTSTAYMELSSLRSEDTAVYYCAAGWNFDYWGQGTTVTVSS
VL: DIQMTQSPSTLSASVGDRVTITCKASQDVGTAVDWYQQKPGQAPKLLIYWASTRHTGVPDRFSGSGSGTDFTLTISRLQPEDFAVYYCQQYNSYPLTFGQGTKVDIK
notes: VH of the humanized antibody ANT4044 (derived from murine J591); IgG1 heavy chain constant region, unmodified; VK of the humanized antibody ANT4044; constant region of the light chain is not described; IgG1; also called unmodified IgG1; ANT4044 unmodified IgG1 construct; source: CHO cells, transiently transfected; purified (Protein A, preparative SEC); copies: 2 + 2
As to B1, in assay [1], the Kd is 0.734 nM, the off-rate (koff) came out at 7.88e-05 s⁻¹ and the kon was found to be 107000 M⁻¹ s⁻¹.

B2: ANT4044-DOTA (antibody, V domains shown)
VH: EVQLVQSGAEVKKPGASVKVSCKASGYTFTEYTIHWVRQAPGKGLEWIGNINPNNGGTTYNQKFEDRVTITVDKSTSTAYMELSSLRSEDTAVYYCAAGWNFDYWGQGTTVTVSS
VL: DIQMTQSPSTLSASVGDRVTITCKASQDVGTAVDWYQQKPGQAPKLLIYWASTRHTGVPDRFSGSGSGTDFTLTISRLQPEDFAVYYCQQYNSYPLTFGQGTKVDIK
notes: VH of ANT4044, as the heavy chain of m1; VK of ANT4044, as the light chain of m1; constant region of the light chain is not described, as the light chain of m1; source: CHO cells, transiently transfected, purified; conjugated with NHS-DOTA; copies: 2 + 2
For the molecule B2, in the assay with mouse PSMA [2], the binding result was “no binding (tested: 12.5 to 50 nM tested)”.

B3: ANT4044 IgG1 (H310A, H435Q) (antibody, V domains shown)
VH: EVQLVQSGAEVKKPGASVKVSCKASGYTFTEYTIHWVRQAPGKGLEWIGNINPNNGGTTYNQKFEDRVTITVDKSTSTAYMELSSLRSEDTAVYYCAAGWNFDYWGQGTTVTVSS
VL: DIQMTQSPSTLSASVGDRVTITCKASQDVGTAVDWYQQKPGQAPKLLIYWASTRHTGVPDRFSGSGSGTDFTLTISRLQPEDFAVYYCQQYNSYPLTFGQGTKVDIK
notes: VH of ANT4044, as the heavy chain of m1; IgG1 heavy chain constant region with H310A and H435Q; VK of ANT4044, as the light chain of m1; constant region of the light chain is not described, as the light chain of m1; IgG1; Lead construct; the introduction names 'this engineered PSMA antibody' TLX592 without saying which variant is meant; also called modified IgG1 (H310A, H435Q); PK-modified …
B3: in assay [1], binding was put at a Kd of 0.737 nM, the koff was found to be 7.48e-05 s⁻¹ and the kon is 101000 M⁻¹ s⁻¹.

B4: ANT4044 IgG4 (S228P, L235E, H310A, H435Q) (antibody, V domains shown)
VH: EVQLVQSGAEVKKPGASVKVSCKASGYTFTEYTIHWVRQAPGKGLEWIGNINPNNGGTTYNQKFEDRVTITVDKSTSTAYMELSSLRSEDTAVYYCAAGWNFDYWGQGTTVTVSS
VL: DIQMTQSPSTLSASVGDRVTITCKASQDVGTAVDWYQQKPGQAPKLLIYWASTRHTGVPDRFSGSGSGTDFTLTISRLQPEDFAVYYCQQYNSYPLTFGQGTKVDIK
notes: VH of ANT4044, as the heavy chain of m1; IgG4 heavy chain constant region with S228P, L235E, H310A and H435Q; VK of ANT4044, as the light chain of m1; constant region of the light chain is not described, as the light chain of m1; IgG4; also called modified IgG4; source: CHO cells, transiently transfected; purified (Protein G, preparative SEC); copies: 2 + 2
In assay [1], B4 displayed a Kd of 0.743 nM, a koff of 0.000104 s⁻¹ and a kon of 139000 M⁻¹ s⁻¹.

B5: ANT4044-DOTA (antibody, V domains shown)
VH: EVQLVQSGAEVKKPGASVKVSCKASGYTFTEYTIHWVRQAPGKGLEWIGNINPNNGGTTYNQKFEDRVTITVDKSTSTAYMELSSLRSEDTAVYYCAAGWNFDYWGQGTTVTVSS
VL: DIQMTQSPSTLSASVGDRVTITCKASQDVGTAVDWYQQKPGQAPKLLIYWASTRHTGVPDRFSGSGSGTDFTLTISRLQPEDFAVYYCQQYNSYPLTFGQGTKVDIK
As to B5, the binding result with mouse PSMA [3] was “no binding (tested: 12.5 to 50 nM)”.

These data come from publication PMC12670495 (Molecular Pharmaceutics, 2025).
